Earlier results on 1 substance are cited in paper PMC3061978.

pKd: −log10 of the molar value.

This series addresses methylamine dehydrogenase (MADH) (Paracoccus denitrificans) (UniProt P22619). The experiment in a line: kinetics.
UniProt P22619, sequence (P22619 58-188, chain 1 of 2): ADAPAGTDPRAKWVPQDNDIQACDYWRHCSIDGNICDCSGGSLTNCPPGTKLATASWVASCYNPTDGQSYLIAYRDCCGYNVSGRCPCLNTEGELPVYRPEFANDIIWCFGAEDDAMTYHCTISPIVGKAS
UniProt P22619, sequence (P29894 29-417, chain 2 of 2, further chain): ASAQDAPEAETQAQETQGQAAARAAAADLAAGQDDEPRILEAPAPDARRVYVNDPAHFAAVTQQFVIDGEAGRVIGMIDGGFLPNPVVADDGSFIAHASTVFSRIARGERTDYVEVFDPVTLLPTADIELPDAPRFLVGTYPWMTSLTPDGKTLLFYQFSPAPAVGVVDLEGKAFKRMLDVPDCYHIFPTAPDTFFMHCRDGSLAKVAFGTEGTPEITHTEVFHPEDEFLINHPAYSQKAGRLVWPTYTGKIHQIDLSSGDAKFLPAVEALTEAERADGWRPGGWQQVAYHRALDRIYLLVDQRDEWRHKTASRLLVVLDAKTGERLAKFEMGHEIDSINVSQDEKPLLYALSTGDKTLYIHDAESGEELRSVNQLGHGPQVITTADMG

Consider MauG (from UniProt Q51658), for which the pKd (as a rule, the negative decadic logarithm of the Kd, by convention in mol/L) is 5.00.
